Target: T1, yeast Hsp90 (yeast, UniProt P02829 1-709)
T1 construct: yeast Hsp90 as used in the ITC experiments; probably the full-length protein was used (surmise)
Experiment: ITC; 400 μM FKBP51 or FKBP51-Δ7He injected into 30 μM Hsp90; 20 mM Tris pH 7.5, 5 mM NaCl, 30 °C
Settings: both partners purified

T1 sequence (P02829 whole entry): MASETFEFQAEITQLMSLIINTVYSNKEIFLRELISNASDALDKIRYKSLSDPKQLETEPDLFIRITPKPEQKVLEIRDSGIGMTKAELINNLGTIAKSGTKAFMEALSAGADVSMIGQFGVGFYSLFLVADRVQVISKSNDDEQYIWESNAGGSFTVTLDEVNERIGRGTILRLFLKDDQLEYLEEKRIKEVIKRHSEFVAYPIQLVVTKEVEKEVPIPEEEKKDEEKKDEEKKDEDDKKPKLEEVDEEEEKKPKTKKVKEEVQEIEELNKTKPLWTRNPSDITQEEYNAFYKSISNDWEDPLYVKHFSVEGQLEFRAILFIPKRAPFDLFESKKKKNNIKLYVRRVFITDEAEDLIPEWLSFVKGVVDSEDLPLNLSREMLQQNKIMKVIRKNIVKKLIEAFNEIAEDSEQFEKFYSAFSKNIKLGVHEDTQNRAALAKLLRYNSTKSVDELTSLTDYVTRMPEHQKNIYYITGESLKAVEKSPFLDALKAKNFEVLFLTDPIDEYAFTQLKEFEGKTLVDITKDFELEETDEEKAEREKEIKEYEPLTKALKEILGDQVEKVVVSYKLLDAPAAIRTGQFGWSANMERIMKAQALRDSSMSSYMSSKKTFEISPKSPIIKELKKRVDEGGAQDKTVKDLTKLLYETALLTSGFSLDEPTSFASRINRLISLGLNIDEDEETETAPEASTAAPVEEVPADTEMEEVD

B1: FKBP51-Δ7He (lacking residues 401–457 of the extended 7th helix of the TPR domain) (domain or fragment, UniProt Q13451 1-400, looked up)
chain: MTTDEGAKNNEESPTATVAEQGEDITSKKDRGVLKIVKRVGNGEETPMIGDKVYVHYKGKLSNGKKFDSSHDRNEPFVFSLGKGQVIKAWDIGVATMKKGEICHLLCKPEYAYGSAGSLPKIPSNATLFFEIELLDFKGEDLFEDGGIIRRTKRKGEGYSNPNEGATVEIHLEGRCGGRMFDCRDVAFTVGEGEDHDIPIGIDKALEKMQREEQCILYLGPRYGFGEAGKPKFGIEPNAELIYEVTLKSFEKAKESWEMDTKEKLEQAAIVKEKGTVYFKGGKYMQAVIQYGKIVSWLEMEYGLSEKESKASESFLLAAFLNLAMCYLKLREYTKAVECCDKALGLDSANEKGLYRRGEAQLLMNEFESAKGDFEKVLEVNPQNKAARLQISMCQKKAKE
notes: FKBP51 lacking residues 401–457 (the helical extension of the 7th helix of the TPR domain), that is, ending at residue 400; also called FKBP51-Δ7He mutant; FKBP51 mutant lacking the helical extension; source: gift of constructs from D. Southworth
B1 was tested, and the Kd was 11.6 µM and the “stoichiometry N” value was 1.25 FKBP51-Δ7He per Hsp90.

— publication PMC10377191, “The Crystal Structure of the Hsp90-LA1011 Complex and the Mechanism by Which LA1011 May Improve the Prognosis of Alzheimer’s Disease” (Biomolecules, 2023)
